Source: article PMC12155224, “Rare missense variants of the leukocyte common antigen related receptor (LAR) display reduced activity in transcellular adhesion and synapse formation” (Research Square, 2025)

B1: LAR FN1–4 WT (recombinant fibronectin III domains 1–4 of human LAR) (domain or fragment)
chain: PKPPIDLVVTETTATSVTLTWDSGNSEPVTYYGIQYRAAGTEGPFQEVDGVATTRYSIGGLSPFSEYAFRVLAVNSIGRGPPSEAVRARTGEQAPSSPPRRVQARMLSASTMLVQWEPPEEPNGLVRGYRVYYTPDSRRPPNAWHKHNTDAGLLTTVGSLLPGITYSLRVLAFTAVGDGPPSPTIQVKTQQGVPAQPADFQAEVESDTRIQLSWLLPPQERIIMYELVYWAAEDEDQQHKVTFDPTSSYTLEDLKPDTLYRFQLAARSDMGVGVFTPTIEARTAQSTPSAPPQKVMCVSMGSTTVRVSWVPPPADSRNGVITQYSVAYEAVDGEDRGRHVVDGISREHSSWDLVGLEKWTEYRVWVRAHTDVGPGPESSPVLVRTDED
modifications: RED-tris-NTA 2nd generation dye on the His tag
notes: leukocyte common antigen related receptor (LAR, PTPRF), human, FN1–4 domains; TEV cleavage site between the His tag and the domains; also called WT LAR FN1–4; LAR FN1–4 domain; source: E. coli BL21(DE3), purified (HisTrap HP or Talon beads, SEC); not shown: His6, N-terminal, kept

Assays:
[1] = molecular target: LAR V389M, full length (human) (UniProt P10586)
[2] = molecular target: LAR P381L, full length (human) (UniProt P10586)
[3] = molecular target: LAR P417L, full length (human) (UniProt P10586)
[4] = molecular target: T1, NGL-3 ECD (extracellular domain of Netrin-G ligand 3, Fc cleaved off) (UniProt Q9NT99 36-576); experiment: MST; His-tagged LAR FN1–4 labelled with RED-tris-NTA, 100 nM; NGL-3 in 1:1 dilution series; 25 mM HEPES pH 7.5, 150 mM NaCl, 0.005 % Tween20; 1 h at RT; Monolith NT.115, medium MST power; MST on time 2.5 s; 1:1 KD model; details: both partners purified
T1 construct: after cleavage LEVLFQ should remain at the C-terminus (surmised); source: ExpiCHO-S, purified (Protein A, Fc cleaved off with 3C protease, SEC); not shown: Fc, C-terminal, cleaved
T1 sequence (looked up): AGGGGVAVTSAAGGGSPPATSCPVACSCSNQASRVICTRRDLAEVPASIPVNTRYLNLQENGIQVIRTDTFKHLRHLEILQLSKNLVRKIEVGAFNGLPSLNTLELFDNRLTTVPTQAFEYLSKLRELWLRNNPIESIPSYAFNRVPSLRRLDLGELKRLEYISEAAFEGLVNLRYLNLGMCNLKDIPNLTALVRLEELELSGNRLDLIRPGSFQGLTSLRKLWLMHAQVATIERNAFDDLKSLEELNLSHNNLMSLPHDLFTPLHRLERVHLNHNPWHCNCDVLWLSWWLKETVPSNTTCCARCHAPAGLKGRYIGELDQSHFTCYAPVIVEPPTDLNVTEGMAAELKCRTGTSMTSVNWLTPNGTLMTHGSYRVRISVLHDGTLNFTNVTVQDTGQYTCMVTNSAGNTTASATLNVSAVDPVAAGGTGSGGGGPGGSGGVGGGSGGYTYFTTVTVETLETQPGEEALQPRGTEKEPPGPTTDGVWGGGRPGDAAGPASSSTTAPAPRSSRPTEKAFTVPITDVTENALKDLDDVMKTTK

Molecule | cell aggregation index: HEK293T cells with LAR variant + mCherry mixed with HEK293T cells with NGL-3 (NGL-3-CFP, whole on cells, not the Fc fusion) + GFP; decrease against WT LAR [1] [% decrease] | cell aggregation index: HEK293T cells with LAR variant + mCherry mixed with HEK293T cells with NGL-3 (NGL-3-CFP, whole on cells, not the Fc fusion) + GFP; decrease against WT LAR [2] [% decrease] | cell aggregation index: HEK293T cells with LAR variant + mCherry mixed with HEK293T cells with NGL-3 (NGL-3-CFP, whole on cells, not the Fc fusion) + GFP; decrease against WT LAR [3] [% decrease] | Kd [4] [µM]
NGL-3-Fc (soluble fusion of the NGL-3 extracellular domain with Fc) (from UniProt Q9NT99 36-576) | > 50 | > 50 | > 50 | 
B1 |  |  |  | 3.68
